Results: IntAct's records for PubMed 18034774

B1: Ras-related protein Rab-5A (Homo sapiens), P20339 (parent)
chain: MASRGATRPNGPNTGNKICQFKLVLLGESAVGKSSLVLRFVKGQFHEFQESTIGAAFLTQTVCLDDTTVKFEIWDTAGQERYHSLAPMYYRGAQAAIVVYDITNEESFARAKNWVKELQRQASPNIVIALSGNKADLANKRAVDFQEAQSYADDNSLLFMETSAKTSMNVNEIFMAIAKKLPKNEPQNPGANSARGRGVDLTEPTQPTRNQCCSN
partner: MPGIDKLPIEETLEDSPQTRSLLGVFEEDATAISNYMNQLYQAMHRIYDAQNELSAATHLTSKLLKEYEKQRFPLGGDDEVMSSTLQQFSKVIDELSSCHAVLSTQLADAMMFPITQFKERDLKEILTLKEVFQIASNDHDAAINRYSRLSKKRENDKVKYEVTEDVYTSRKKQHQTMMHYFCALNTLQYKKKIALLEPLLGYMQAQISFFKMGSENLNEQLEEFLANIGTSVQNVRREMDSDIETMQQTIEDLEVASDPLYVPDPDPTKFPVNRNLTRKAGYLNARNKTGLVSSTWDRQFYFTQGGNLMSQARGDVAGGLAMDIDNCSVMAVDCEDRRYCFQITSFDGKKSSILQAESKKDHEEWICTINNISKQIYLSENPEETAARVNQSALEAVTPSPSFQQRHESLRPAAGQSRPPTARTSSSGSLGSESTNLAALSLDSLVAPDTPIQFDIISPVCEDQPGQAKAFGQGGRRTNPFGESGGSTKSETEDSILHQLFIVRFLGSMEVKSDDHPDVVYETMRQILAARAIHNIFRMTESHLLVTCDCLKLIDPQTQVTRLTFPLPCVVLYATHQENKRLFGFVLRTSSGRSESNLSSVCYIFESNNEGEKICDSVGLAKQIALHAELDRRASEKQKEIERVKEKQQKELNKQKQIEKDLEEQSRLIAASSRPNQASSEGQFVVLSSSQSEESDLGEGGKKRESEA

Variants of: B1
Conditions: with dp13a_human APPL1, Q9UKG1

Row | Variant | effect of a mutation on the interaction
1 | MASRGATRPNGPNTGNKICQFKLVLLGESAVGKNSLVLRFVKGQFHEFQESTIGAAFLTQTVCLDDTTVKFEIWDTAGQERYHSLAPMYYRGAQAAIVVYDITNEESFARAKNWVKELQRQASPNIVIALSGNKADLANKRAVDFQEAQSYADDNSLLFMETSAKTSMNVNEIFMAIAKKLPKNEPQNPGANSARGRGVDLTEPTQPTRNQCCSN [S34N] | disrupting interaction strength
